{"source": "patent US20100311669A1", "molecular_target": "Recombinant purified HER2 receptor composed of the ectodomain of HER2 fused to the Fc of human IgG (human) (UniProt P04626)", "assay": "SPR (Biacore 3000), HER2-Fc immobilized, peptide as analyte, 25 C", "note": "Positions of bridges follow the written chain, without caps; N, C: chain ends. No end group written: not given here."}
{"binder": "FCGDGFYACYMDV-OH (disulfide 2-9)", "note": "[AHNP analogue 8, …-OH (cyclic)]", "values": [{"measurement": "Kd", "result": 760, "unit": "nM"}, {"measurement": "koff", "result": 0.000701, "unit": "s⁻¹"}, {"measurement": "kon", "result": 922, "unit": "M⁻¹ s⁻¹"}]}
